Each block holds one binder with its values, some of them ahead of it.
What was measured:
[1] = target: T1, VEGF165 (human, UniProt P15692 27-191); experiment: ELISA
T1 chain: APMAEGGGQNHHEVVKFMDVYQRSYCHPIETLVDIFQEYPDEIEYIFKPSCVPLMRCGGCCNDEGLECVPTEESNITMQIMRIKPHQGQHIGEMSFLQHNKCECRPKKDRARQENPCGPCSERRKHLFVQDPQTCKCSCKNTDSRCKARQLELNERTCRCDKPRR

[2] = target: T1, VEGF165; experiment: competition ELISA (unbound VEGF)
[3] = target: T1, VEGF165; experiment: competition ELISA (unbound VEGF); multivalent HyA conjugate
[4] = target: T1, VEGF165; experiment: ELISA; multivalent CMC conjugate
[5] = target: T2, VEGF165 (human, UniProt P15692-4 27-191); experiment: binding competition ELISA (VEGF165 Quantikine): free VEGF165 captured by the plate antibody
T2 construct: Treated as one molecule; also called VEGF-A165; human VEGF-A165
Experimental: The mvsFlt conjugates were analyzed using a VEGF₁₆₅ Quantikine Sandwich ELISA (R&D Systems) to examine the effect of HyA conjugation on sFlt inhibition of VEGF₁₆₅. The assay was carried out according to the manufacturer's instructions. Briefly, VEGF₁₆₅ was added to PBS with varying concentrations of sFlt or mysFlt. Free VEGF₁₆₅ that bound to the capture antibodies on the plate surface were detected using a horseradish peroxidase conjugated detection antibody and quantified using a spectrophotometer at 450 nm.

[6] = target: T2, VEGF165; experiment: cell-based or functional assay
[7] = target: T3, mvsFlt 650 kDa LCR (multivalent sFlt-hyaluronic acid conjugate, low conjugation ratio), P17948
T3 chain: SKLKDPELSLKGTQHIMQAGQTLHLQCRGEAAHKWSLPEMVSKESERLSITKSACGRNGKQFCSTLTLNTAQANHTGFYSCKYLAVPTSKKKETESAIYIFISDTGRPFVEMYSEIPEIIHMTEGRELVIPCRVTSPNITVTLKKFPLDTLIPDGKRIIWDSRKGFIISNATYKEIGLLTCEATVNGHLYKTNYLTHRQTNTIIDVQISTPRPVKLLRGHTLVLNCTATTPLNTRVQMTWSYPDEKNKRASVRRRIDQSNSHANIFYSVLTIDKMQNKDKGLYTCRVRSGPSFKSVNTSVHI

[8] = target: soluble fms-like tyrosine kinase-1 (sFlt), unconjugated (UniProt P17948); experiment: cell-based or functional assay

IC50 [1]: 761 nM
IC50 [2]: 758 nM
B1: single-domain camelid (VHH) anti-VEGF antibody, unconjugated (VHH)
VHH: DVQLVESGGGLVQPGGSLRLSCAASGRTFSSYSMGWFRQAPGKEREFVVAISKGGYKYDAVSLEGRFTISRDNAKNTVYLQINSLRPEDTAVYYCASSRAYGSSRLRLADTYEYWGQGTLVTVSS

IC50 [3]: 812 nM
B2: conjugated multivalent VHH anti-VEGF antibody (28 VHH per 860 kDa hyaluronic acid) (other)
VHH: SNADVQLVESGGGLVQPGGSLRLSCAASGRTFSSYSMGWFRQAPGKEREFVVAISKGGYKYDAVSLEGRFTISRDNAKNTVYLQINSLRPEDTAVYYCASSRAYGSSRLRLADTYEYWGQGTLVTVSSSPSTPPTPSPSTPPGGCDDDDKHHHHHH
modifications: covalently conjugated to 860 kDa hyaluronic acid

IC50 [4]: 8800 nM
B3: anti-VEGF VHH-CMC conjugate (~17 VHH per ~700 kDa carboxymethylcellulose) (other)
VHH: B2 VHH
modifications: covalently conjugated to ~700 kDa carboxymethylcellulose

IC50 [5]: 0.0038 µg/mL
B4: soluble fms-like tyrosine kinase-1 (sFlt), unconjugated (receptor, UniProt P17948 27-328, looked up)
chain: T3 chain
notes: domain: first 3 Ig-like extracellular domains; Expressed in High Five insect cells, about 50 kDa; also called recombinant sFlt; soluble Flt-1 receptor; not shown: tag implied by Ni-NTA purification, not described for the tested protein (the ex)
IC50, HUVEC Survival [6]: 0.0393 µg/mL

IC50 [5]: 0.002 µg/mL
B5: mvsFlt 650 kDa HCR (multivalent sFlt-hyaluronic acid conjugate, high conjugation ratio) (other, UniProt P17948 27-328, looked up)
chain: T3 chain
modifications: thiolated with 2-iminothiolane and linked through EMCH maleimide to 650 kDa hyaluronic acid
notes: domain: first 3 Ig-like extracellular domains; Protein-polymer conjugate; 30:1 sFlt:HyA feed ratio; final sFlt:HyA 17.1 by SEC-MALS; not shown: tag implied by Ni-NTA purification, not described
IC50, HUVEC Survival [6]: 0.0432 µg/mL

IC50 [5]: 0.0045 µg/mL
B6: mvsFlt 300 kDa LCR (multivalent sFlt-hyaluronic acid conjugate, low conjugation ratio) (other, UniProt P17948 27-328, looked up)
chain: T3 chain
modifications: thiolated with 2-iminothiolane and linked through EMCH maleimide to 300 kDa hyaluronic acid
notes: domain: first 3 Ig-like extracellular domains; Protein-polymer conjugate; 10:1 sFlt:HyA feed ratio; final sFlt:HyA 7.9 by SEC-MALS; not shown: tag implied by Ni-NTA purification, not described
IC50, HUVEC Survival [6]: 0.0469 µg/mL

IC50 [5]: 0.0022 µg/mL
B7: mvsFlt 1 MDa LCR (multivalent sFlt-hyaluronic acid conjugate, low conjugation ratio) (other, UniProt P17948 27-328, looked up)
chain: T3 chain
modifications: thiolated with 2-iminothiolane and linked through EMCH maleimide to 1 MDa hyaluronic acid
notes: domain: first 3 Ig-like extracellular domains; Protein-polymer conjugate; 10:1 sFlt:HyA feed ratio; final sFlt:HyA 5.2 by SEC-MALS; not shown: tag implied by Ni-NTA purification, not described
IC50, HUVEC Survival [6]: 0.0449 µg/mL

IC50 [5]: 0.0039 µg/mL
B8: mvsFlt 650 kDa LCR (multivalent sFlt-hyaluronic acid conjugate, low conjugation ratio) (other, UniProt P17948 27-328, looked up)
chain: T3 chain
modifications: thiolated with 2-iminothiolane and linked through EMCH maleimide to 650 kDa hyaluronic acid
notes: domain: first 3 Ig-like extracellular domains; Protein-polymer conjugate; 10:1 sFlt:HyA feed ratio; final sFlt:HyA 5.3 by SEC-MALS; also called 650 kDa LCR mvsFlt; not shown: tag implied by Ni-NTA purification, not described
IC50, HUVEC Survival [6]: 0.0417 µg/mL

IC50 [5]: 0.0047 µg/mL
B9: mvsFlt 300 kDa HCR (multivalent sFlt-hyaluronic acid conjugate, high conjugation ratio) (other, UniProt P17948 27-328, looked up)
chain: T3 chain
modifications: thiolated with 2-iminothiolane and linked through EMCH maleimide to 300 kDa hyaluronic acid
notes: domain: first 3 Ig-like extracellular domains; Protein-polymer conjugate; 30:1 sFlt:HyA feed ratio; final sFlt:HyA 15.4 by SEC-MALS; not shown: tag implied by Ni-NTA purification, not described
IC50, HUVEC Survival [6]: 0.0444 µg/mL

IC50 [5]: 0.0033 µg/mL
B10: mvsFlt 1 MDa HCR (multivalent sFlt-hyaluronic acid conjugate, high conjugation ratio) (other, UniProt P17948 27-328, looked up)
chain: T3 chain
modifications: thiolated with 2-iminothiolane and linked through EMCH maleimide to 1 MDa hyaluronic acid
notes: domain: first 3 Ig-like extracellular domains; Protein-polymer conjugate; 30:1 sFlt:HyA feed ratio; final sFlt:HyA 14.1 by SEC-MALS; not shown: tag implied by Ni-NTA purification, not described
IC50, HUVEC Survival [6]: 0.0454 µg/mL

IC50 [3]: 47.7 nM
B11: conjugated multivalent scFv anti-VEGF antibody (31 scFv per 860 kDa hyaluronic acid) (other)
scFv: MEIVMTQSPSTLSASVGDRVIITCQASEIIHSWLAWYQQKPGKAPKLLIYLASTLASGVPSRFSGSGSGAEFTLTISSLQPDDFATYYCQNVYLASTNGANFGQGTKLTVLGGGGGSGGGGSGGGGSGGGGSEVQLVESGGGLVQPGGSLRLSCTASGFSLTDYYYMTWVRQAPGKGLEWVGFIDPDDDPYYATWAKGRFTISRDNSKNTLYLQMNSLRAEDTAVYYCAGGDHNSGWGLDIWGQGTLVTVSSSPSTPPTPSPSTPPGGCDDDDKHHHHHH
modifications: covalently conjugated to 860 kDa hyaluronic acid

IC50 [2]: 89.8 nM
B12: single-chain variable fragment (scFv) anti-VEGF antibody, unconjugated (scFv)
scFv: B11 scFv

protein remaining detectable after 12 h with MMP-7 at 1:1 molar ratio of MMP-7 to sFlt (SDS-PAGE, silver stain) [8]: 6.8%
protein remaining detectable after 12 h with MMP-7 at 1:4 molar ratio of MMP-7 to sFlt (SDS-PAGE, silver stain) [8]: 34%
B13: matrix metalloproteinase-7 (MMP-7) (protein)
chain: YSLFPNSPKWTSKVVTYRIVSYTRDLPHITVDRLVSKALNMWGKEIPLHFRKVVWGTADIMIGFARGAHGDSYPFDGPGNTLAHAFAPGTGLGGDAHFDEDERWTDGSSLGINFLYAATHELGHSLGMGHSSDPNAVMYPTYGNGDPQNFKLSQDDIKGIQKLYGKRSNSRKK
protein remaining detectable after 12 h with MMP-7 at 1:1 molar ratio of MMP-7 to sFlt (SDS-PAGE, silver stain) [7]: 34.8±1.8% of mvsFlt
protein remaining detectable after 12 h with MMP-7 at 1:4 molar ratio of MMP-7 to sFlt (SDS-PAGE, silver stain) [7]: detectable mvsFlt at 74.8±4.9%
